Source: the supplement of paper PMC5998384

Experiments:
HeLa Kyoto [1] = experiment: thermal stability score vs G1/S (z-score of summed log2 fold changes over temperatures); higher = more thermally stable than in G1/S
HeLa Kyoto [2] = experiment: solubility in G1/S (NP-40 vs SDS abundance) (log2 ratio); higher = more soluble; conditions: cell cycle stage: G1/S
HeLa Kyoto [3] = experiment: solubility change mitosis vs G1/S (difference of NP-40 vs SDS log2 ratios) (log2 ratio difference); higher = more soluble in mitosis
HeLa Kyoto [4] = experiment: melting temperature (median over replicates), in situ; higher = more thermally stable
[5] = cell cycle stage: early G1 (4.5 h after nocodazole release)
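Wherever melting temperature (median over replicates), in situ is given: HeLa Kyoto cells synchronized by double thymidine or nocodazole block, proteins quantified by TMT10plex mass spectrometry, three independent biological replicates.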
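Wherever solubility change mitosis vs G1/S (difference of NP-40 vs SDS log2 ratios) is given: synchronized HeLa Kyoto cells (double thymidine block for G1/S, nocodazole release for mitosis), protein amounts in NP-40 versus SDS lysates quantified by mass spectrometry, three biological replicates.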
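Wherever solubility in G1/S (NP-40 vs SDS abundance) is given: HeLa Kyoto cells arrested at G1/S by double thymidine block, proteins quantified by TMT10plex mass spectrometry in mild NP-40 versus SDS extracts, three biological replicates.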
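Wherever thermal stability score vs G1/S (z-score of summed log2 fold changes over temperatures) is given: synchronized HeLa Kyoto cells, proteins quantified by TMT10plex mass spectrometry, three biological replicates, mitosis taken 0.5 h after nocodazole release, G1/S directly after double thymidine block.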

Row | Substance | thermal stability score (HeLa Kyoto [1]; [5]) | thermal stability score (HeLa Kyoto [1]; cell cycle stage: mitosis) | solubility in G1/S (log2) (HeLa Kyoto [2]) | solubility change mitosis (log2) (HeLa Kyoto [3]) | melting temperature (HeLa Kyoto [4]; cell cycle stage: G1/S) | melting temperature (HeLa Kyoto [4]; cell cycle stage: mitosis)
1 | MDPLGAPSQFVDVDTLPSWGDSCQDELNSSDTTAEIFQEDTVRSPFLYNKDVNGKVVLWKGDVALLNCTAIVNTSNESLTDKNPVSESIFMLAGPDLKEDLQKLKGCRTGEAKLTKGFNLAARFIIHTVGPKYKSRYRTAAESSLYSCYRNVLQLAKEQSMSSVGFCVINSAKRGYPLEDATHIALRTVRRFLEIHGETIEKVVFAVSDLEEGTYQKLLPLYFPRSLKEENRSLPYLPADIGNAEGEPVVPERQIRISEKPGAPEDNQEEEDEGLGVDLSFIGSHAFARMEGDIDKQRKLILQGQLSEAALQKQHQRNYNRWLCQARSEDLSDIASLKALYQTGVDNCGRTVMVVVGRNIPVTLIDMDKALLYFIHVMDHIAVKEYVLVYFHTLTSEYNHLDSDFLKKLYDVVDVKYKRNLKAVYFVHPTFRSKVSTWFFTTFSVSGLKDKIHHVDSLHQLFSAISPEQIDFPPFVLEYDARENGPYYTSYPPSPDL [GDAP2] | 0.35 | 0.405 | 0.111 | -0.148 | 48.2 °C | 49.1 °C
2 | MDIYDTQTLGVVVFGGFMVVSAIGIFLVSTFSMKETSYEEALANQRKEMAKTHHQKVEKKKKEKTVEKKGKTKKKEEKPNGKIPDHDPAPNVTVLLREPVRAPAVAVAPTPVQPPIIVAPVATVPAMPQEKLASSPKDKKKKEKKVAKVEPAVSSVVNSIQVLTSKAAILETAPKEVPMVVVPPVGAKGNTPATGTTQGKKAEGTQNQSKKAEGAPNQGRKAEGTPNQGKKTEGTPNQGKKAEGTPNQGKKAEGTPNQGKKAEGAQNQGKKVDTTPNQGKKVEGAPTQGRKAEGAQNQAKKVEGAQNQGKKAEGAQNQGKKGEGAQNQGKKAEGAQNQGKKAEGAQNQGKKAEGAQNQGKKAEGAQNQGKKAEGAQNQGKKAEGAQNQGKKVEGAQNQGKKAEGAQNQGKKAEGAQNQGKKAEGAQNQGKKAEGAQNQGKKAEGAQNQGKKAEGAQNQGKKAEGAQNQGKKVEGAQNQGKKAEGAQNQGKKAEGAQNQGKKAEGAQNQGQKGEGAQNQGKKTEGAQGKKAERSPNQGKKGEGAPIQGKKADSVANQGTKVEGITNQGKKAEGSPSEGKKAEGSPNQGKKADAAANQGKKTESASVQGRNTDVAQSPEAPKQEAPAKKKSGSKKKGEPGPPDADGPLYLPYKTLVSTVGSMVFNEGEAQRLIEILSEKAGIIQDTWHKATQKGDPVAILKRQLEEKEKLLATEQEDAAVAKSKLRELNKEMAAEKAKAAAGEAKVKKQLVAREQEITAVQARMQASYREHVKEVQQLQGKIRTLQEQLENGPNTQLARLQQENSILRDALNQATSQVESKQNAELAKLRQELSKVSKELVEKSEAVRQDEQQRKALEAKAAAFEKQVLQLQASHRESEEALQKRLDEVSRELCHTQSSHASLRADAEKAQEQQQQMAELHSKLQSSEAEVRSKCEELSGLHGQLQEARAENSQLTERIRSIEALLEAGQARDAQDVQASQAEADQQQTRLKELESQVSGLEKEAIELREAVEQQKVKNNDLREKNWKAMEALATAEQACKEKLLSLTQAKEESEKQLCLIEAQTMEALLALLPELSVLAQQNYTEWLQDLKEKGPTLLKHPPAPAEPSSDLASKLREAEETQSTLQAECDQYRSILAETEGMLRDLQKSVEEEEQVWRAKVGAAEEELQKSRVTVKHLEEIVEKLKGELESSDQVREHTSHLEAELEKHMAAASAECQNYAKEVAGLRQLLLESQSQLDAAKSEAQKQSDELALVRQQLSEMKSHVEDGDIAGAPASSPEAPPAEQDPVQLKTQLEWTEAILEDEQTQRQKLTAEFEEAQTSACRLQEELEKLRTAGPLESSETEEASQLKERLEKEKKLTSDLGRAATRLQELLKTTQEQLAREKDTVKKLQEQLEKAEDGSSSKEGTSV [RRBP1] | 2.64 | 7.14 | 0.0657 | 0.448 | 53.2 °C | 53.7 °C
3 | MLSSCVRPVPTTVRFVDSLICNSSRSFMDLKALLSSLNDFASLSFAESWDNVGLLVEPSPPHTVNTLFLTNDLTEEVMEEVLQKKADLILSYHPPIFRPMKRITWNTWKERLVIRALENRVGIYSPHTAYDAAPQGVNNWLAKGLGACTSRPIHPSKAPNYPTEGNHRVEFNVNYTQDLDKVMSAVKGIDGVSVTSFSARTGNEEQTRINLNCTQKALMQVVDFLSRNKQLYQKTEILSLEKPLLLHTGMGRLCTLDESVSLATMIDRIKRHLKLSHIRLALGVGRTLESQVKVVALCAGSGSSVLQGVEADLYLTGEMSHHDTLDAASQGINVILCEHSNTERGFLSDLRDMLDSHLENKINIILSETDRDPLQVV [NIF3L1] | -0.711 | -0.332 | 0.187 | -0.161 | 60.8 °C | 60.7 °C
4 | MPTGFVAPILCVLLPSPTREAATVASATGDSASERESAAPAAAPTAEAPPPSVVTRPEPQALPSPAIRAPLPDLYPFGTMRGGGFGDRDRDRDRGGFGARGGGGLPPKKFGNPGERLRKKKWDLSELPKFEKNFYVEHPEVARLTPYEVDELRRKKEITVRGGDVCPKPVFAFHHANFPQYVMDVLMDQHFTEPTPIQCQGFPLALSGRDMVGIAQTGSGKTLAYLLPAIVHINHQPYLERGDGPICLVLAPTRELAQQVQQVADDYGKCSRLKSTCIYGGAPKGPQIRDLERGVEICIATPGRLIDFLESGKTNLRRCTYLVLDEADRMLDMGFEPQIRKIVDQIRPDRQTLMWSATWPKEVRQLAEDFLRDYTQINVGNLELSANHNILQIVDVCMESEKDHKLIQLMEEIMAEKENKTIIFVETKRRCDDLTRRMRRDGWPAMCIHGDKSQPERDWVLNEFRSGKAPILIATDVASRGLDVEDVKFVINYDYPNSSEDYVHRIGRTARSTNKGTAYTFFTPGNLKQARELIKVLEEANQAINPKLMQLVDHRGGGGGGGGRSRYRTTSSANNPNLMYQDECDRRLRGVKDGGRRDSASYRDRSETDRAGYANGSGYGSPNSAFGAQAGQYTYGQGTYGAAAYGTSSYTAQEYGAGTYGASSTTSTGRSSQSSSQQFSGIGRSGQQPQPLMSQQFAQPPGATNMIGYMGQTAYQYPPPPPPPPPSRK [DDX17] | 3.12 | 5.66 | -0.381 | 0.16 | 49.1 °C | 49.8 °C
5 | MATKGGTVKAASGFNAMEDAQTLRKAMKGLGTDEDAIISVLAYRNTAQRQEIRTAYKSTIGRDLIDDLKSELSGNFEQVIVGMMTPTVLYDVQELRRAMKGAGTDEGCLIEILASRTPEEIRRISQTYQQQYGRSLEDDIRSDTSFMFQRVLVSLSAGGRDEGNYLDDALVRQDAQDLYEAGEKKWGTDEVKFLTVLCSRNRNHLLHVFDEYKRISQKDIEQSIKSETSGSFEDALLAIVKCMRNKSAYFAEKLYKSMKGLGTDDNTLIRVMVSRAEIDMLDIRAHFKRLYGKSLYSFIKGDTSGDYRKVLLVLCGGDD [ANXA4] | 5.77 | 4.03 | 0.48 | 0.0251 | 50.1 °C | 50.2 °C
6 | MDVNIAPLRAWDDFFPGSDRFARPDFRDISKWNNRVVSNLLYYQTNYLVVAAMMISIVGFLSPFNMILGGIVVVLVFTGFVWAAHNKDVLRRMKKRYPTTFVMVVMLASYFLISMFGGVMVFVFGITFPLLLMFIHASLRLRNLKNKLENKMEGIGLKRTPMGIVLDALEQQEEGINRLTDYISKVKE [ARL6IP5] | 0.94 | 0.797 | -0.0879 | -0.126 | 56.4 °C | 57.5 °C
7 | PHF3 | 0.714 | 2.75 | -0.532 | 0.194 | 53.2 °C | 53.7 °C
8 | MAASTGYVRLWGAARCWVLRRPMLAAAGGRVPTAAGAWLLRGQRTCDASPPWALWGRGPAIGGQWRGFWEASSRGGGAFSGGEDASEGGAEEGAGGAGGSAGAGEGPVITALTPMTIPDVFPHLPLIAITRNPVFPRFIKIIEVKNKKLVELLRRKVRLAQPYVGVFLKRDDSNESDVVESLDEIYHTGTFAQIHEMQDLGDKLRMIVMGHRRVHISRQLEVEPEEPEAENKHKPRRKSKRGKKEAEDELSARHPAELAMEPTPELPAEVLMVEVENVVHEDFQVTEEVKALTAEIVKTIRDIIALNPLYRESVLQMMQAGQRVVDNPIYLSDMGAALTGAESHELQDVLEETNIPKRLYKALSLLKKEFELSKLQQRLGREVEEKIKQTHRKYLLQEQLKIIKKELGLEKDDKDAIEEKFRERLKELVVPKHVMDVVDEELSKLGLLDNHSSEFNVTRNYLDWLTSIPWGKYSNENLDLARAQAVLEEDHYGMEDVKKRILEFIAVSQLRGSTQGKILCFYGPPGVGKTSIARSIARALNREYFRFSVGGMTDVAEIKGHRRTYVGAMPGKIIQCLKKTKTENPLILIDEVDKIGRGYQGDPSSALLELLDPEQNANFLDHYLDVPVDLSKVLFICTANVTDTIPEPLRDRMEMINVSGYVAQEKLAIAERYLVPQARALCGLDESKAKLSSDVLTLLIKQYCRESGVRNLQKQVEKVLRKSAYKIVSGEAESVEVTPENLQDFVGKPVFTVERMYDVTPPGVVMGLAWTAMGGSTLFVETSLRRPQDKDAKGDKDGSLEVTGQLGEVMKESARIAYTFARAFLMQHAPANDYLVTSHIHLHVPEGATPKDGPSAGCTIVTALLSLAMGRPVRQNLAMTGEVSLTGKILPVGGIKEKTIAAKRAGVTCIVLPAENKKDFYDLAAFITEGLEVHFVEHYREIFDIAFPDEQAEALAVER [LONP1] | -0.58 | -1.35 | 0.12 | -0.0806 | 54.4 °C | 53.6 °C
9 | MLRAKNQLFLLSPHYLRQVKESSGSRLIQQRLLHQQQPLHPEWAALAKKQLKGKNPEDLIWHTPEGISIKPLYSKRDTMDLPEELPGVKPFTRGPYPTMYTFRPWTIRQYAGFSTVEESNKFYKDNIKAGQQGLSVAFDLATHRGYDSDNPRVRGDVGMAGVAIDTVEDTKILFDGIPLEKMSVSMTMNGAVIPVLANFIVTGEEQGVPKEKLTGTIQNDILKEFMVRNTYIFPPEPSMKIIADIFEYTAKHMPKFNSISISGYHMQEAGADAILELAYTLADGLEYSRTGLQAGLTIDEFAPRLSFFWGIGMNFYMEIAKMRAGRRLWAHLIEKMFQPKNSKSLLLRAHCQTSGWSLTEQDPYNNIVRTAIEAMAAVFGGTQSLHTNSFDEALGLPTVKSARIARNTQIIIQEESGIPKVADPWGGSYMMECLTNDVYDAALKLINEIEEMGGMAKAVAEGIPKLRIEECAARRQARIDSGSEVIVGVNKYQLEKEDAVEVLAIDNTSVRNRQIEKLKKIKSSRDQALAERCLAALTECAASGDGNILALAVDASRARCTVGEITDALKKVFGEHKANDRMVSGAYRQEFGESKEITSAIKRVHKFMEREGRRPRLLVAKMGQDGHDRGAKVIATGFADLGFDVDIGPLFQTPREVAQQAVDADVHAVGISTLAAGHKTLVPELIKELNSLGRPDILVMCGGVIPPQDYEFLFEVGVSNVFGPGTRIPKAAVQVLDDIEKCLEKKQQSV [MUT] | -0.0875 | 0.531 | 0.0667 | -0.0993 | 50.6 °C | 50.3 °C
10 | MSENSSDSDSSCGWTVISHEGSDIEMLNSVTPTDSCEPAPECSSLEQEELQALQIEQGESSQNGTVLMEETAYPALEETSSTIEAEEQKIPEDSIYIGTASDDSDIVTLEPPKLEEIGNQEVVIVEEAQSSEDFNMGSSSSSQYTFCQPETVFSSQPSDDESSSDETSNQPSPAFRRRRARKKTVSASESEDRLVAEQETEPSKELSKRQFSSGLNKCVILALVIAISMGFGHFYGTIQIQKRQQLVRKIHEDELNDMKDYLSQCQQEQESFIDYKSLKENLARCWTLTEAEKMSFETQKTNLATENQYLRVSLEKEEKALSSLQEELNKLREQIRILEDKGTSTELVKENQKLKQHLEEEKQKKHSFLSQRETLLTEAKMLKRELERERLVTTALRGELQQLSGSQLHGKSDSPNVYTEKKEIAILRERLTELERKLTFEQQRSDLWERLYVEAKDQNGKQGTDGKKKGGRGSHRAKNKSKETFLGSVKETFDAMKNSTKEFVRHHKEKIKQAKEAVKENLKKFSDSVKSTFRHFKDTTKNIFDEKGNKRFGATKEAAEKPRTVFSDYLHPQYKAPTENHHNRGPTMQNDGRKEKPVHFKEFRKNTNSKKCSPGHDCRENSHSFRKACSGVFDCAQQESMSLFNTVVNPIRMDEFRQIIQRYMLKELDTFCHWNELDQFINKFFLNGVFIHDQKLFTDFVNDVKDYLRNMKEYEVDNDGVFEKLDEYIYRHFFGHTFSPPYGPRSVYIKPCHYSSL [CCPG1] | 1.39 | 2.71 | -0.321 | -0.0492 | 53.6 °C | 53.6 °C
